Key:
PD-1 [1] = biological target: T1, PD-1 (UniProt Q15116 25-167, limits assumed); experiment: ELISA, OD mutant/OD WT; B=70-90%
PD-1 [2] = biological target: T1, PD-1; experiment: ELISA, conjugate vs WT antibody
CD28 = CD28 (UniProt P10747 19-152, limits assumed); experiment: ELISA, conjugate vs WT antibody

T1 sequence (Q15116 25-167 limits assumed): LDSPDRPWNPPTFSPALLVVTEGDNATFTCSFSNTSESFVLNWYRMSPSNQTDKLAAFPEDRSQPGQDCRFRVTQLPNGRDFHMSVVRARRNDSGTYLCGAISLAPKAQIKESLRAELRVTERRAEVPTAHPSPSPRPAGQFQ

Binder | binding activity (OD after mutation/OD wild type) (PD-1 [1]) | binding activity (% of WT) (PD-1 [2]) | also measured
anti-PD-1 antibody 2 heavy chain A61C (antibody, human IgG4 S228P, kappa, V domains shown) VH: QVQLVESGGGVVQPGRSLRLDCKASGITFSNSGMHWVRQAPGKGLEWVAVIWYDGSKRYYCDSVKGRFTISRDNSKNTLFLQMNSLRAEDTAVYYCATNDDYWGQGTLVTVSS VL: EIVLTQSPATLSLSPGERATLSCRASQSVSSYLAWYQQKPGQAPRLLIYDASNRATGIPARFSGSGSGTDFTLTISSLEPEDFAVYYCQQSSNWPRTFGQGTKVEIKR | 70 to 90% | – | –
anti-PD-1 antibody 2 light chain A25C-R4-5 (antibody, human IgG4 S228P, kappa, V domains shown, R4-5 on Cys 25) VH: QVQLVESGGGVVQPGRSLRLDCKASGITFSNSGMHWVRQAPGKGLEWVAVIWYDGSKRYYADSVKGRFTISRDNSKNTLFLQMNSLRAEDTAVYYCATNDDYWGQGTLVTVSS VL: EIVLTQSPATLSLSPGERATLSCRCSQSVSSYLAWYQQKPGQAPRLLIYDASNRATGIPARFSGSGSGTDFTLTISSLEPEDFAVYYCQQSSNWPRTFGQGTKVEIKR | – | 87.2% | –
anti-PD-1 antibody 2 light chain Y32C-R4-1 (antibody, human IgG4 S228P, kappa, V domains shown, R4-1 on Cys 32) VH: QVQLVESGGGVVQPGRSLRLDCKASGITFSNSGMHWVRQAPGKGLEWVAVIWYDGSKRYYADSVKGRFTISRDNSKNTLFLQMNSLRAEDTAVYYCATNDDYWGQGTLVTVSS VL: EIVLTQSPATLSLSPGERATLSCRASQSVSSCLAWYQQKPGQAPRLLIYDASNRATGIPARFSGSGSGTDFTLTISSLEPEDFAVYYCQQSSNWPRTFGQGTKVEIKR | – | 25.6% | –
anti-PD-1 antibody 2 heavy chain D101C (antibody, human IgG4 S228P, kappa, V domains shown) VH: QVQLVESGGGVVQPGRSLRLDCKASGITFSNSGMHWVRQAPGKGLEWVAVIWYDGSKRYYADSVKGRFTISRDNSKNTLFLQMNSLRAEDTAVYYCATNDCYWGQGTLVTVSS VL: EIVLTQSPATLSLSPGERATLSCRASQSVSSYLAWYQQKPGQAPRLLIYDASNRATGIPARFSGSGSGTDFTLTISSLEPEDFAVYYCQQSSNWPRTFGQGTKVEIKR | 70 to 90% | – | –
anti-PD-1 antibody 2 light chain A34C-R4-5 (antibody, human IgG4 S228P, kappa, V domains shown, R4-5 on Cys 34) VH: QVQLVESGGGVVQPGRSLRLDCKASGITFSNSGMHWVRQAPGKGLEWVAVIWYDGSKRYYADSVKGRFTISRDNSKNTLFLQMNSLRAEDTAVYYCATNDDYWGQGTLVTVSS VL: EIVLTQSPATLSLSPGERATLSCRASQSVSSYLCWYQQKPGQAPRLLIYDASNRATGIPARFSGSGSGTDFTLTISSLEPEDFAVYYCQQSSNWPRTFGQGTKVEIKR | – | 83.9% | –
anti-PD-1 antibody 2 light chain T56C-R4-5 (antibody, human IgG4 S228P, kappa, V domains shown, R4-5 on Cys 56) VH: QVQLVESGGGVVQPGRSLRLDCKASGITFSNSGMHWVRQAPGKGLEWVAVIWYDGSKRYYADSVKGRFTISRDNSKNTLFLQMNSLRAEDTAVYYCATNDDYWGQGTLVTVSS VL: EIVLTQSPATLSLSPGERATLSCRASQSVSSYLAWYQQKPGQAPRLLIYDASNRACGIPARFSGSGSGTDFTLTISSLEPEDFAVYYCQQSSNWPRTFGQGTKVEIKR | – | 89.4% | –
anti-PD-1 antibody 2 light chain S30C-R4-1 (antibody, human IgG4 S228P, kappa, V domains shown, R4-1 on Cys 30) VH: QVQLVESGGGVVQPGRSLRLDCKASGITFSNSGMHWVRQAPGKGLEWVAVIWYDGSKRYYADSVKGRFTISRDNSKNTLFLQMNSLRAEDTAVYYCATNDDYWGQGTLVTVSS VL: EIVLTQSPATLSLSPGERATLSCRASQSVCSYLAWYQQKPGQAPRLLIYDASNRATGIPARFSGSGSGTDFTLTISSLEPEDFAVYYCQQSSNWPRTFGQGTKVEIKR | – | 34.4% | –
anti-CD28 antibody heavy chain Y52C-R4-4 (antibody, human IgG4, kappa, V domains shown, R4-4 on Cys 52) VH: QVQLVQSGAEVKKPGASVKVSCKASGYTFTSYYIHWVRQAPGQGLEWIGCICPGNVNTNYNEKFKDRATLTVDTSISTAYMELSRLRSDDTAVYFCTRSHYGLDWNFDVWGQGTTVTVSS VL: not shown | – | – | binding activity (% of WT) (CD28): 91.6%
anti-PD-1 antibody 1 heavy chain K63C (antibody, human IgG4 S228P, kappa, V domains shown) VH: QVQLVQSGVEVKKPGASVKVSCKASGYTFTNYYMYWVRQAPGQGLEWMGGINPSNGGTNFNECFKNRVTLTTDSSTTTAYMELKSLQFDDTAVYYCARRDYRFDMGFDYWGQGTTVTVSS VL: EIVLTQSPATLSLSPGERATLSCRASKGVSTSGYSYLHWYQQKPGQAPRLLIYLASYLESGVPARFSGSGSGTDFTLTISSLEPEDFAVYYCQHSRDLPLTFGGGTKVEIKR | 70 to 90% | – | –

The next lines start with results.

binding activity (OD after mutation/OD wild type) (PD-1 [1]) | binding activity (% of WT) (PD-1 [2]) | Binder | also measured
70 to 90% | – | anti-PD-1 antibody 2 heavy chain D54C (antibody, human IgG4 S228P, kappa, V domains shown) VH: QVQLVESGGGVVQPGRSLRLDCKASGITFSNSGMHWVRQAPGKGLEWVAVIWYCGSKRYYADSVKGRFTISRDNSKNTLFLQMNSLRAEDTAVYYCATNDDYWGQGTLVTVSS VL: EIVLTQSPATLSLSPGERATLSCRASQSVSSYLAWYQQKPGQAPRLLIYDASNRATGIPARFSGSGSGTDFTLTISSLEPEDFAVYYCQQSSNWPRTFGQGTKVEIKR | –
– | 45.5% | anti-PD-1 antibody 2 light chain S92C-R4-1 (antibody, human IgG4 S228P, kappa, V domains shown, R4-1 on Cys 92) VH: QVQLVESGGGVVQPGRSLRLDCKASGITFSNSGMHWVRQAPGKGLEWVAVIWYDGSKRYYADSVKGRFTISRDNSKNTLFLQMNSLRAEDTAVYYCATNDDYWGQGTLVTVSS VL: EIVLTQSPATLSLSPGERATLSCRASQSVSSYLAWYQQKPGQAPRLLIYDASNRATGIPARFSGSGSGTDFTLTISSLEPEDFAVYYCQQSCNWPRTFGQGTKVEIKR | –
70 to 90% | – | anti-PD-1 antibody 2 heavy chain I51C (antibody, human IgG4 S228P, kappa, V domains shown) VH: QVQLVESGGGVVQPGRSLRLDCKASGITFSNSGMHWVRQAPGKGLEWVAVCWYDGSKRYYADSVKGRFTISRDNSKNTLFLQMNSLRAEDTAVYYCATNDDYWGQGTLVTVSS VL: EIVLTQSPATLSLSPGERATLSCRASQSVSSYLAWYQQKPGQAPRLLIYDASNRATGIPARFSGSGSGTDFTLTISSLEPEDFAVYYCQQSSNWPRTFGQGTKVEIKR | –
– | 95.7% | anti-PD-1 antibody 2 light chain S31C-R4-1 (antibody, human IgG4 S228P, kappa, V domains shown, R4-1 on Cys 31) VH: QVQLVESGGGVVQPGRSLRLDCKASGITFSNSGMHWVRQAPGKGLEWVAVIWYDGSKRYYADSVKGRFTISRDNSKNTLFLQMNSLRAEDTAVYYCATNDDYWGQGTLVTVSS VL: EIVLTQSPATLSLSPGERATLSCRASQSVSCYLAWYQQKPGQAPRLLIYDASNRATGIPARFSGSGSGTDFTLTISSLEPEDFAVYYCQQSSNWPRTFGQGTKVEIKR | –
70 to 90% | – | anti-PD-1 antibody 1 heavy chain I51C (antibody, human IgG4 S228P, kappa, V domains shown) VH: QVQLVQSGVEVKKPGASVKVSCKASGYTFTNYYMYWVRQAPGQGLEWMGGCNPSNGGTNFNEKFKNRVTLTTDSSTTTAYMELKSLQFDDTAVYYCARRDYRFDMGFDYWGQGTTVTVSS VL: EIVLTQSPATLSLSPGERATLSCRASKGVSTSGYSYLHWYQQKPGQAPRLLIYLASYLESGVPARFSGSGSGTDFTLTISSLEPEDFAVYYCQHSRDLPLTFGGGTKVEIKR | –
70 to 90% | – | anti-PD-1 antibody 1 heavy chain Y35C (antibody, human IgG4 S228P, kappa, V domains shown) VH: QVQLVQSGVEVKKPGASVKVSCKASGYTFTNYYMCWVRQAPGQGLEWMGGINPSNGGTNFNEKFKNRVTLTTDSSTTTAYMELKSLQFDDTAVYYCARRDYRFDMGFDYWGQGTTVTVSS VL: EIVLTQSPATLSLSPGERATLSCRASKGVSTSGYSYLHWYQQKPGQAPRLLIYLASYLESGVPARFSGSGSGTDFTLTISSLEPEDFAVYYCQHSRDLPLTFGGGTKVEIKR | –
